The source of these data is patent US20160263235A1 (ANGIOCHEM, published 2016).

Square brackets hold non-standard residues; d marks the D form.

Assay [1] concerns the target T1, NT receptor NTSR1 (high affinity NTSR1 receptor) on HT29 cells (human (HT29 is stated to be a human …, UniProt P30989 1-418)).
T1 construct: whole, on cells; Endogenous receptor on HT29 cells
Put plainly: competitive displacement of [3H]-NT from HT29 cells expressing NTSR1. (In general: In a radioligand displacement assay an active substance lowers the binding of a labelled ligand.)

The target of assay [2] is T1, NT receptor NTSR1 (high affinity NTSR1 …). The description is as above. This is another data set of the same source.

T1 sequence (P30989 whole entry): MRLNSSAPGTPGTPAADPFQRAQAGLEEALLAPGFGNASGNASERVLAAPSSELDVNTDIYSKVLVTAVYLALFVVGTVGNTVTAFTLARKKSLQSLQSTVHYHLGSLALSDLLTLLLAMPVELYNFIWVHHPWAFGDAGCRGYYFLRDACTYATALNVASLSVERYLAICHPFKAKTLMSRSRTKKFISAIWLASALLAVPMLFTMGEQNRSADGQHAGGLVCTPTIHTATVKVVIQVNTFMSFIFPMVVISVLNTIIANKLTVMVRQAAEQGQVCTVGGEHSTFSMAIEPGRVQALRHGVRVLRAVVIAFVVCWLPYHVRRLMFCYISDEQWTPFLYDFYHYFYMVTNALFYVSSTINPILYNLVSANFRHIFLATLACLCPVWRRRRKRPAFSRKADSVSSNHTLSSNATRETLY

B1: Ac-Lys-[D-Tyr^11]NT(8-13) (peptide)
peptide: Ac-KRRP[dY]IL-OH
SMILES: CC[C@H](C)[C@H](NC(=O)[C@@H](Cc1ccc(O)cc1)NC(=O)[C@@H]1CCCN1C(=O)[C@H](CCCNC(=N)N)NC(=O)[C@H](CCCNC(=N)N)NC(=O)[C@H](CCCCN)NC(C)=O)C(=O)N[C@@H](CC(C)C)C(=O)O
notes: also called AcLysNT(8-13)D-tyr11; AcLysNT(8-13)(D-Tyr11)
One may read the IC50 as the midpoint of a concentration-inhibition curve. Higher therefore signals weaker potency. In turn, B1 had an IC50 in assay [1] of 5.39 µM. Besides, the “fold weaker binding than native NT” value in assay [2] is more than 1000 fold.
